In US20220288124A1:

What was measured:
[1] = target: hGPC3-C fragment (AA359-580) (human) (UniProt P51654); experiment: flow cytometry, intracellular staining of 293 cells transfected with hGPC3-C; gate set on untransfected cells
[2] = target: hGPC3-C fragment (AA359-580) (human) (UniProt P51654); experiment: flow cytometry, intracellular staining of 293T cells transfected with hGPC3-C; gate set on untransfected cells

Sequence of hGPC3-C fragment (AA359-580) (human) (P51654 359-580 limits assumed, form in doubt): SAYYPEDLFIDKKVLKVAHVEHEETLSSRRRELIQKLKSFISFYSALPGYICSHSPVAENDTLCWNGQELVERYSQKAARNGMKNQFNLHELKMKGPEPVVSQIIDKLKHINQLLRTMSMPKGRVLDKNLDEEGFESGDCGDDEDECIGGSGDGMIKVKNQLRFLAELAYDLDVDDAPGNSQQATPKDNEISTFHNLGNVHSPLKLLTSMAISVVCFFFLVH

Binder | % of cells in the positive gate [1] [%] | % of events in gate M1 [2] [%]
mAb 6G11 (mouse hybridoma antibody) (antibody, V domains shown) VH: QVQLQQPGSELVRPGASVKLSCKASGYTFTSCWMHWVKQRPGQGLEWIGNIYPGYGNTNYDEKFKNKATLTVDTSSSTAYMQLSGLTSEDSAVYYCTRGSYLYAMDYWGQGTSVTVSS VL: DIQMNQSPSSLSASLGDTITITCHASQNINVWLSWYQQKPGNIPKLLIYKASNLHTGVPSRFSGSGSGTGFTLTISSLQPEDIATYYCQQGQSYPWTFGGGTKLEIKR | 0.75 | 4.03
mAb 12D7 (mouse hybridoma antibody) (antibody, V domains shown) VH: QVQLQQPGSELVRPGASVKLSCKASGYTFTSYWMHWVKQRLGQGLEWIGNIYPGSGSTNYDEKFKSKGTLTVDTSSSTAYMHLSSLTSEDSAVYYCTRGDYDWVFAYWGQGTLVTVSA VL: DIVMTQSQKFMSTSVGDRVSVTCKASQNVGTNVAWYQQKPGQSPKALIYSASYRYSGVPDRFTGSGSGTDFTLTISNVQSEDLAEYFCQQYNSYPLTFGAGTKLELKR | 0.92 | 0.47
